Measurements taken from IntAct's records for PubMed 14699056.

B1: Protein EMP47 (Saccharomyces cerevisiae), P43555 (parent)
chain: MMMLITMKSTVLLSVFTVLATWAGLLEAHPLGDTSDASKLSSDYSLPDLINARKVPNNWQTGEQASLEEGRIVLTSKQNSKGSLWLKQGFDLKDSFTMEWTFRSVGYSGQTDGGISFWFVQDSNVPRDKQLYNGPVNYDGLQLLVDNNGPLGPTLRGQLNDGQKPVDKTKIYDQSFASCLMGYQDSSVPSTIRVTYDLEDDNLLKVQVDNKVCFQTRKVRFPSGSYRIGVTAQNGAVNNNAESFEIFKMQFFNGVIEDSLIPNVNAMGQPKLITKYIDQQTGKEKLIEKTAFDADKDKITNYELYKKLDRVEGKILANDINALETKLNDVIKVQQELLSFMTTITKQLSSKPPANNEKGTSTDDAIAEDKENFKDFLSINQKLEKVLVEQEKYREATKRHGQDGPQVDEIARKLMIWLLPLIFIMLVMAYYTFRIRQEIIKTKLL
partner: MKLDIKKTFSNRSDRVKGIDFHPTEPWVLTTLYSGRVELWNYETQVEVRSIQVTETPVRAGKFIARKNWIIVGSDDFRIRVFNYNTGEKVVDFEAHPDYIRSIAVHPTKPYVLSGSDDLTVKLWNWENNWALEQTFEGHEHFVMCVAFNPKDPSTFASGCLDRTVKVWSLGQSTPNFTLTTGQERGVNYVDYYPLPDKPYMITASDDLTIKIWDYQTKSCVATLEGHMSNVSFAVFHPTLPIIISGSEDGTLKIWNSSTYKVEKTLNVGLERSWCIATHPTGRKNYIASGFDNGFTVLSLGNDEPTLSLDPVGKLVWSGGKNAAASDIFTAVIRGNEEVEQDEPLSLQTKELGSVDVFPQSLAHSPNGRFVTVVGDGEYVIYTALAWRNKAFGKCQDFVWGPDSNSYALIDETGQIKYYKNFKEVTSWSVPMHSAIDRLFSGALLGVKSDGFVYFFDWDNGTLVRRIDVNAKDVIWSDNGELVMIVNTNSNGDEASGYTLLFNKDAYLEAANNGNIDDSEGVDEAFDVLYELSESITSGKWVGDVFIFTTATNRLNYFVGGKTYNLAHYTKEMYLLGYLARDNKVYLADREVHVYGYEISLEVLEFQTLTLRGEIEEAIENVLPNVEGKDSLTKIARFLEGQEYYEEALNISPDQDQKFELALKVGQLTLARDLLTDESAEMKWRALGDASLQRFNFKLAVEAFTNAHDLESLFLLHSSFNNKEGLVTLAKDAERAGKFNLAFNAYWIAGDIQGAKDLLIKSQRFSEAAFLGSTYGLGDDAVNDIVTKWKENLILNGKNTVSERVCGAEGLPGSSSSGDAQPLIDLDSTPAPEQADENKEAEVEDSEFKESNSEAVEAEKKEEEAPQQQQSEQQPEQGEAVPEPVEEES
B2: Dolichyl-diphosphooligosaccharide--protein glycosyltransferase subunit WBP1 (Saccharomyces cerevisiae), P33767 (parent)
chain: MRTDWNFFFCILLQAIFVVGTQTSRTLVLYDQSTEPLEEYSVYLKDLEQRNYKLEYLDINSTSTTVDLYDKEQRLFDNIIVFPTKGGKNLARQIPVKQLIKFFENEGNILCMSSPGAVPNTIRLFLNELGIYPSPKGHVIRDYFSPSSEELVVSSNHLLNKYVYNARKSEDFVFGESSAALLENREQIVPILNAPRTSFTESKGKCNSWTSGSQGFLVVGFQNLNNARLVWIGSSDFLKNKNQDSNQEFAKELLKWTFNEKSVIKSVHAVHSHADGTSYDEEPYKIKDKVIYSVGFSEWNGEEWLPHIADDIQFELRQVDPYYRLTLSPSGNDSETQYYTTGEFILPDRHGVFTFLTDYRKIGLSFTTDKDVKAIRHLANDEYPRSWEISNSWVYISAICGVIVAWIFFVVSFVTTSSVGKKLETFKKTN
partner: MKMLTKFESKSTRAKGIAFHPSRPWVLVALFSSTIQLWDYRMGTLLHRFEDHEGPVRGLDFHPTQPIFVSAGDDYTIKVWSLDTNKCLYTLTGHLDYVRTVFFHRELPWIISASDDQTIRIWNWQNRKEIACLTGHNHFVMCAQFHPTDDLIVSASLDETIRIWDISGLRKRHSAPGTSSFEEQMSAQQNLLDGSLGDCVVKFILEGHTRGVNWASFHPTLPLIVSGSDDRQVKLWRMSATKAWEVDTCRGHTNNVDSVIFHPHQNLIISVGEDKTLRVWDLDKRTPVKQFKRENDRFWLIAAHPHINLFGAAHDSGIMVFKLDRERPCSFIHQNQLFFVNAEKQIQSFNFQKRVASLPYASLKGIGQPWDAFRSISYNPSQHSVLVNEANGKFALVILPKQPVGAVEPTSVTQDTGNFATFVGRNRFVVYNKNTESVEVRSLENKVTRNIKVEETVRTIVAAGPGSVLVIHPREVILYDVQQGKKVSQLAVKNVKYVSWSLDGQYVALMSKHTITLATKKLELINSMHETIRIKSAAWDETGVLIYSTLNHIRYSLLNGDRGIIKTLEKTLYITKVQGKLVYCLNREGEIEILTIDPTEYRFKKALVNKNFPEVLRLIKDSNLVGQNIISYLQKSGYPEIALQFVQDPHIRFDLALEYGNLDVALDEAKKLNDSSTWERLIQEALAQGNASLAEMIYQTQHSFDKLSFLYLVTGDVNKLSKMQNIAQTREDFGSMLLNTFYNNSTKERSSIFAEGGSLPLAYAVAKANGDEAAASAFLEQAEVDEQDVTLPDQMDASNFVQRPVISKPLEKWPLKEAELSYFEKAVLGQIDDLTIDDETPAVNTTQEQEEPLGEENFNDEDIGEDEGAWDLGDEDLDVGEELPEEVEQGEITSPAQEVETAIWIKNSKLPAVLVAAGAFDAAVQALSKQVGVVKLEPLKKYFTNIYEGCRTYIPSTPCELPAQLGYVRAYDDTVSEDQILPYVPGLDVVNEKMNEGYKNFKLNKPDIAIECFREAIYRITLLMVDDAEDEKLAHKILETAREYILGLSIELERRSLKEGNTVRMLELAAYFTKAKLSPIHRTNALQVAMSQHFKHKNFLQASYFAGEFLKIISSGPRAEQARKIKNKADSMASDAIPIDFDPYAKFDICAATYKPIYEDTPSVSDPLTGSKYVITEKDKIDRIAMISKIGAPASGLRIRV

Variants of: B1
Settings: with copb2_yeast SEC27, P41811

K441S;K443S was tested. Which “effect of a mutation on the interaction” value did it give?
Its value is “decreasing interaction”.

Variants of: B2
Settings: with copa_yeast COP1, P53622

With K427A;K428A as the variant, how does the “effect of a mutation on the interaction” value read?
The value was “decreasing interaction”.
